Eight molecules from US20200055935A1 (AGENCY FOR SCIENCE TECHNOLOGY AND RESEARCH, published 2020) can be followed below.

In this test the target is T1, human TIM-3 coupled to Fc (human, UniProt Q8TDQ0 22-200, limits assumed).
T1 construct: Immobilised on the SPR sensor chip; not shown: Fc part
The experiment in a line: SPR (ProteOn XPR36), human TIM-3-Fc immobilised, antibody in flow. Here is the method: In order to select some leads amongst the ELISA-positive clones, TIM-3 association/dissociation profiles were analysed by Surface Plasmon Resonance (SPR). Briefly, human TIM-3 coupled to Fc was immobilised on sensor chip and the antibodies were then applied as a flow onto the chip. Association and dissociation rates were recorded using a ProteOn XPR36 bioanalyser (Biorad). Nine clones (1B9, 1H9, 1H10, 2C7, 2F4, 2G6, 1D9, 1F4, 2C8) were selected based on their rapid/strong association to TIM-3 and their slow dissociation from the protein (FIG. 5).

Residue numbers refer to the chain shown, from its start.

B1: anti-TIM-3 antibody clone 1H10 (antibody, V domains shown)
VH: QVQLQQWGAGLLKPSETLSLTCAVYGGSFSGYYWSWIRQPPGKGLEWIGEINHSGSTNYNPSLKSRVTISVDTSKNQFSLKLSSVTAADTAVYYCARGYVAGFDSWGQGTLVTVSS
VL: QSVLTQPPSVSAAPGQKVTISCSGSSSNIGNNYVSWYQQLPGTAPKLLIYGNNWRPSGIPDRFSGSKSGTSATLGITGLQTGDEADYYCDSWDYDYAAGVFGGGTKLTVL
Consider B1, for which the binding result was “binds”.

B2: anti-TIM-3 antibody clone 2G6 (antibody, V domains shown)
VH: B1 VH
VL: B1 VL with Y94S, D95S, Y96D, A97S, A98S
Take B2: the binding result is listed as “binds”.

B3: anti-TIM-3 antibody clone 2F4 (antibody, V domains shown)
VH: B1 VH with F103S, S105A
VL: B1 VL with D90E, A98S
Regarding B3, the binding result is given as “binds”.

B4: anti-TIM-3 antibody clone 2C7 (antibody, V domains shown)
VH: B1 VH with F103Y, S105Y
VL: B1 VL with Y94S, D95Y, Y96L
In the case of B4, the binding result was “binds”.

B5: anti-TIM-3 antibody clone 1F4 (antibody, V domains shown)
VH: B1 VH with F103Y, S105Y
VL: B1 VL with Y94A, D95A, Y96L, A97S
On to B5, for which the binding result is “binds”.

B6: anti-TIM-3 antibody clone 1B9 (antibody, V domains shown)
VH: B1 VH with F103S, S105A
VL: B1 VL with D90E, S91A, D95Y, Y96V, V100Y
notes: also called 169
For the molecule B6, the binding result is on record as “binds”.

B7: anti-TIM-3 antibody clone 1D9 (antibody, V domains shown)
VH: B1 VH with V100Y, F103D, S105Y
VL: B1 VL with D90E, S91A, Y94S, D95A, V100S
For B7, the binding result is “binds”.

B8: anti-TIM-3 antibody clone 1H9 (antibody, V domains shown)
VH: B1 VH with S105D
VL: B1 VL with Y94S, D95A, Y96D, A98S
With B8, the binding result is “binds”.
